In patent publication US20110118447A1 one finds fold difference in affinity vs original data, which are given here for 30 molecules.

Positions count from the first letter of the chain named. Numbers in names are those of the source.

Sequences and labels used below:
B1: C5A (XPA23) VL Q27D (antibody, V domains shown)
VH: EVQLLESGGGLVQPGGSLRLSCAASGFTFSKYFMFWVRQAPGKGLEWVSVISPSGGMTRYADSVKGRFTISRDNSKNTLYLQMNSLRAEDTAVYYCARVGYGGNSDYWGQGTLVTVSS
VL: DIQMTQSPSSVSASVGDRLTIICRASDDINRWLAWYQQTPGNAPKLLIHSATSLQSGVPSRFSGSGSGTDFTLTINSLQPEDFATYYCQQADSFPLTFGGGTKVEIK
B2: C5A (XPA23) VL H49D (antibody, V domains shown)
VH: B1 VH
VL: B1 VL with D27Q, H49D
B3: C5A (XPA23) VL R31T (antibody, V domains shown)
VH: B1 VH
VL: B1 VL with D27Q, R31T
B4: C5A (XPA23) VL Q27H (antibody, V domains shown)
VH: B1 VH
VL: B1 VL with D27H
B5: C5A (XPA23) VL N30S (antibody, V domains shown)
VH: B1 VH
VL: B1 VL with D27Q, N30S
B6: C5A (XPA23) VL N30R (antibody, V domains shown)
VH: B1 VH
VL: B1 VL with D27Q, N30R
B7: C5A (XPA23) VL R31S (antibody, V domains shown)
VH: B1 VH
VL: B1 VL with D27Q, R31S
B8: C5A (XPA23) VL N30D (antibody, V domains shown)
VH: B1 VH
VL: B1 VL with D27Q, N30D
B9: C5A (XPA23) VL N30T (antibody, V domains shown)
VH: B1 VH
VL: B1 VL with D27Q, N30T
B10: C5A (XPA23) VL D28R (antibody, V domains shown)
VH: B1 VH
VL: B1 VL with D27Q, D28R
B11: C5A (XPA23) VL Q27R (antibody, V domains shown)
VH: B1 VH
VL: B1 VL with D27R
B12: C5A (XPA23) VL D28S (antibody, V domains shown)
VH: B1 VH
VL: B1 VL with D27Q, D28S
B13: C5A (XPA23) VL N30E (antibody, V domains shown)
VH: B1 VH
VL: B1 VL with D27Q, N30E
B14: C5A (XPA23) VL N30K (antibody, V domains shown)
VH: B1 VH
VL: B1 VL with D27Q, N30K
B15: C5A (XPA23) VL D28N (antibody, V domains shown)
VH: B1 VH
VL: B1 VL with D27Q, D28N
B16: C5A (XPA23) VL D28E (antibody, V domains shown)
VH: B1 VH
VL: B1 VL with D27Q, D28E
B17: C5A (XPA23) VL Q27S (antibody, V domains shown)
VH: B1 VH
VL: B1 VL with D27S
B18: C5A (XPA23) VL R31N (antibody, V domains shown)
VH: B1 VH
VL: B1 VL with D27Q, R31N
B19: C5A (XPA23) VL R31K (antibody, V domains shown)
VH: B1 VH
VL: B1 VL with D27Q, R31K
B20: C5A (XPA23) VL D28K (antibody, V domains shown)
VH: B1 VH
VL: B1 VL with D27Q, D28K
B21: C5A (XPA23) VL R31D (antibody, V domains shown)
VH: B1 VH
VL: B1 VL with D27Q, R31D
B22: C5A (XPA23) VL D28Y (antibody, V domains shown)
VH: B1 VH
VL: B1 VL with D27Q, D28Y
B23: C5A (XPA23) VL N30H (antibody, V domains shown)
VH: B1 VH
VL: B1 VL with D27Q, N30H
B24: C5A (XPA23) VL Q27E (antibody, V domains shown)
VH: B1 VH
VL: B1 VL with D27E
B25: C5A (XPA23) VL N30Q (antibody, V domains shown)
VH: B1 VH
VL: B1 VL with D27Q, N30Q
B26: C5A (XPA23) VL Q27T (antibody, V domains shown)
VH: B1 VH
VL: B1 VL with D27T
B27: C5A (XPA23) VL D28H (antibody, V domains shown)
VH: B1 VH
VL: B1 VL with D27Q, D28H
B28: C5A (XPA23) VL R31Q (antibody, V domains shown)
VH: B1 VH
VL: B1 VL with D27Q, R31Q
B29: C5A (XPA23) VL D28T (antibody, V domains shown)
VH: B1 VH
VL: B1 VL with D27Q, D28T
B30: C5A (XPA23) VL N30Y (antibody, V domains shown)
VH: B1 VH
VL: B1 VL with D27Q, N30Y

In the assay the target is binding partner of C5A (XPA23). The assay is described as follows: Biacore K-off.
For the molecule B1, the fold difference in affinity vs original stood at 1.07 fold. With B2 the figure was 0.11 fold; with B3, 0.24 fold; with B4, 1.09 fold.

As to B5, the fold difference in affinity vs original amounted to 0.72 fold. With B6 the figure was 0.74 fold; with B7, 0.44 fold; with B8, 0.81 fold. With B9 the figure was 0.97 fold; with B10, 0.94 fold; with B11, 0.89 fold.

With B12, the fold difference in affinity vs original amounted to 5.25 fold. With B13 the figure was 0.64 fold. With B14 the figure was 0.61 fold; with B15, 1 fold; with B16, 0.74 fold. With B17 the figure was 3.3 fold; with B18, 0.38 fold; with B19, 1.18 fold. For B20, the fold difference in affinity vs original was found to be 0.82 fold. On to B21, for which the fold difference in affinity vs original is 11.1 fold. For B22 the value was 1.45 fold; for B23, 1 fold; for B24, 1.08 fold.

As to B25, the fold difference in affinity vs original is 0.6 fold. For B26 the value was 0.64 fold; for B27, 1.23 fold; for B28, 0.27 fold. For B29 the value was 1.19 fold. With B30, the fold difference in affinity vs original amounted to 1.4 fold.
